Data reported in publication PMC5521201.

Biological target: T1, CTCF (UniProt P49711 1-727)
T1 sequence: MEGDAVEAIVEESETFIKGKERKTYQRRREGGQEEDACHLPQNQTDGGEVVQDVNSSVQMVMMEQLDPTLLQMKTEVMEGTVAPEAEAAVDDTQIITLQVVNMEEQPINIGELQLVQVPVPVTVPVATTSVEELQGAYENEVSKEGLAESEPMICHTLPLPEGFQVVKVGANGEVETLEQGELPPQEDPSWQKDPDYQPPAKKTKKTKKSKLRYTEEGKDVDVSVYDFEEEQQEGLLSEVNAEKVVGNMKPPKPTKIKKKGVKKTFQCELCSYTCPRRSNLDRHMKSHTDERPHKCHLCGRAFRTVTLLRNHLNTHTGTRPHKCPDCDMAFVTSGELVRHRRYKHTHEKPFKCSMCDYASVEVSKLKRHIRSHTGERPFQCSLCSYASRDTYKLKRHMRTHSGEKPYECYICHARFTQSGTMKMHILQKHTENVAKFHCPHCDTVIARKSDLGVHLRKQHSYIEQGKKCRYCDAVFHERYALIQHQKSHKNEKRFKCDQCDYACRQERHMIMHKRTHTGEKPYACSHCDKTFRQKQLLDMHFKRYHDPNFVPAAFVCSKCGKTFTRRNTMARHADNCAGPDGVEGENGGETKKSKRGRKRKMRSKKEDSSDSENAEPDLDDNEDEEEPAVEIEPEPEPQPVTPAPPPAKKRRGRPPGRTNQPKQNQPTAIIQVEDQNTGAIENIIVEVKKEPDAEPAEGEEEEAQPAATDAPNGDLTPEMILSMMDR
Test: EMSA

B1: CTCF WT (BZLF1 promoter CTCF site) (dsDNA)
DNA 1: TCGTCCAAATGGCCACGAGGGGGCGGGTGGCTCAGGTC
DNA 2: GACCTGAGCCACCCGCCCCCTCGTGGCCATTTGGACGA
binding result: binds
